Ki data for 6 molecules are collected here from US20210139548A1 (published 2021).

*1 amine or outer side, *2 acyl side, *3 side chain or, on linkers, in order; H or OH if unused. Side-chain parts run from the residue outwards. The star is where a group is joined. C18 diacid = O=C(O)CCCCCCCCCCCCCCCCC(=O)*; γGlu = O=C(O)[C@H](CCC(=O)[*:2])N[*:1]; Isovaleryl = CC(C)CC(=O)*; AEEA = NCCOCCOCC(=O)O

T1: human neuropeptide Y2 receptor (human, UniProt P49146 1-381)
T1 construct: whole, on cells; also called hNPY2 receptor; hNPY2-R
T1 sequence (looked up): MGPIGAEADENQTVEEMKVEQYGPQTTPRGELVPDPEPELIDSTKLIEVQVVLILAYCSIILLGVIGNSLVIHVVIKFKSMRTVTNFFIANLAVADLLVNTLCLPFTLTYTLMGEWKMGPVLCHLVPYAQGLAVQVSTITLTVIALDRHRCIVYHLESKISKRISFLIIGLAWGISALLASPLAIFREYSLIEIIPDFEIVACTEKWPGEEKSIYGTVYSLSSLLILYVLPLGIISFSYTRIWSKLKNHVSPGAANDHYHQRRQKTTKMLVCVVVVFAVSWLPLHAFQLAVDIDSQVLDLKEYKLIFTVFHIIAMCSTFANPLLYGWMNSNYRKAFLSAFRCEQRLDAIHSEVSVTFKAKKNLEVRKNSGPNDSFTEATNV

B1: Compound 234 (peptide)
peptide: Isovaleryl-APAK([AEEA-AEEA-γGlu-C18 diacid])PEEEASPEELQRYYVSLRHYYNWLTRQRY-NH2
SMILES: CC(C)CC(=O)N[C@@H](C)C(=O)N1CCC[C@H]1C(=O)N[C@@H](C)C(=O)N[C@@H](CCCCNC(=O)COCCOCCNC(=O)COCCOCCNC(=O)CC[C@H](NC(=O)CCCCCCCCCCCCCCCCC(=O)O)C(=O)O)C(=O)N1CCC[C@H]1C(=O)N[C@@H](CCC(=O)O)C(=O)N[C@@H](CCC(=O)O)C(=O)N[C@@H](CCC(=O)O)C(=O)N[C@@H](C)C(=O)N[C@@H](CO)C(=O)N1CCC[C@H]1C(=O)N[C@@H](CCC(=O)O)C(=O)N[C@@H](CCC(=O)O)C(=O)N[C@@H](CC(C)C)C(=O)N[C@@H](CCC(N)=O)C(=O)N[C@@H](CCCNC(=N)N)C(=O)N[C@@H](Cc1ccc(O)cc1)C(=O)N[C@@H](Cc1ccc(O)cc1)C(=O)N[C@H](C(=O)N[C@@H](CO)C(=O)N[C@@H](CC(C)C)C(=O)N[C@@H](CCCNC(=N)N)C(=O)N[C@@H](Cc1c[nH]cn1)C(=O)N[C@@H](Cc1ccc(O)cc1)C(=O)N[C@@H](Cc1ccc(O)cc1)C(=O)N[C@@H](CC(N)=O)C(=O)N[C@@H](Cc1c[nH]c2ccccc12)C(=O)N[C@@H](CC(C)C)C(=O)N[C@H](C(=O)N[C@@H](CCCNC(=N)N)C(=O)N[C@@H](CCC(N)=O)C(=O)N[C@@H](CCCNC(=N)N)C(=O)N[C@@H](Cc1ccc(O)cc1)C(N)=O)[C@@H](C)O)C(C)C
B2: Compound 238 (peptide)
peptide: Isovaleryl-APEK([AEEA-AEEA-γGlu-C18 diacid])TEEEASPEELQRYYVSLRHYYNWLTRQRY-NH2
SMILES: CC(C)CC(=O)N[C@@H](C)C(=O)N1CCC[C@H]1C(=O)N[C@@H](CCC(=O)O)C(=O)N[C@@H](CCCCNC(=O)COCCOCCNC(=O)COCCOCCNC(=O)CC[C@H](NC(=O)CCCCCCCCCCCCCCCCC(=O)O)C(=O)O)C(=O)N[C@H](C(=O)N[C@@H](CCC(=O)O)C(=O)N[C@@H](CCC(=O)O)C(=O)N[C@@H](CCC(=O)O)C(=O)N[C@@H](C)C(=O)N[C@@H](CO)C(=O)N1CCC[C@H]1C(=O)N[C@@H](CCC(=O)O)C(=O)N[C@@H](CCC(=O)O)C(=O)N[C@@H](CC(C)C)C(=O)N[C@@H](CCC(N)=O)C(=O)N[C@@H](CCCNC(=N)N)C(=O)N[C@@H](Cc1ccc(O)cc1)C(=O)N[C@@H](Cc1ccc(O)cc1)C(=O)N[C@H](C(=O)N[C@@H](CO)C(=O)N[C@@H](CC(C)C)C(=O)N[C@@H](CCCNC(=N)N)C(=O)N[C@@H](Cc1c[nH]cn1)C(=O)N[C@@H](Cc1ccc(O)cc1)C(=O)N[C@@H](Cc1ccc(O)cc1)C(=O)N[C@@H](CC(N)=O)C(=O)N[C@@H](Cc1c[nH]c2ccccc12)C(=O)N[C@@H](CC(C)C)C(=O)N[C@H](C(=O)N[C@@H](CCCNC(=N)N)C(=O)N[C@@H](CCC(N)=O)C(=O)N[C@@H](CCCNC(=N)N)C(=O)N[C@@H](Cc1ccc(O)cc1)C(N)=O)[C@@H](C)O)C(C)C)[C@@H](C)O
B3: Compound 243 (peptide)
peptide: Isovaleryl-APEK([AEEA-AEEA-γGlu-C18 diacid])PEEEASPEELQQYYVSLRHYYNWLTRQRY-NH2
SMILES: CC(C)CC(=O)N[C@@H](C)C(=O)N1CCC[C@H]1C(=O)N[C@@H](CCC(=O)O)C(=O)N[C@@H](CCCCNC(=O)COCCOCCNC(=O)COCCOCCNC(=O)CC[C@H](NC(=O)CCCCCCCCCCCCCCCCC(=O)O)C(=O)O)C(=O)N1CCC[C@H]1C(=O)N[C@@H](CCC(=O)O)C(=O)N[C@@H](CCC(=O)O)C(=O)N[C@@H](CCC(=O)O)C(=O)N[C@@H](C)C(=O)N[C@@H](CO)C(=O)N1CCC[C@H]1C(=O)N[C@@H](CCC(=O)O)C(=O)N[C@@H](CCC(=O)O)C(=O)N[C@@H](CC(C)C)C(=O)N[C@@H](CCC(N)=O)C(=O)N[C@@H](CCC(N)=O)C(=O)N[C@@H](Cc1ccc(O)cc1)C(=O)N[C@@H](Cc1ccc(O)cc1)C(=O)N[C@H](C(=O)N[C@@H](CO)C(=O)N[C@@H](CC(C)C)C(=O)N[C@@H](CCCNC(=N)N)C(=O)N[C@@H](Cc1c[nH]cn1)C(=O)N[C@@H](Cc1ccc(O)cc1)C(=O)N[C@@H](Cc1ccc(O)cc1)C(=O)N[C@@H](CC(N)=O)C(=O)N[C@@H](Cc1c[nH]c2ccccc12)C(=O)N[C@@H](CC(C)C)C(=O)N[C@H](C(=O)N[C@@H](CCCNC(=N)N)C(=O)N[C@@H](CCC(N)=O)C(=O)N[C@@H](CCCNC(=N)N)C(=O)N[C@@H](Cc1ccc(O)cc1)C(N)=O)[C@@H](C)O)C(C)C
B4: Compound 244 (peptide)
peptide: Isovaleryl-APEK([AEEA-AEEA-γGlu-C18 diacid])PEEDAEPAELQRYYVSLRHYYNWLTRQRY-NH2
SMILES: CC(C)CC(=O)N[C@@H](C)C(=O)N1CCC[C@H]1C(=O)N[C@@H](CCC(=O)O)C(=O)N[C@@H](CCCCNC(=O)COCCOCCNC(=O)COCCOCCNC(=O)CC[C@H](NC(=O)CCCCCCCCCCCCCCCCC(=O)O)C(=O)O)C(=O)N1CCC[C@H]1C(=O)N[C@@H](CCC(=O)O)C(=O)N[C@@H](CCC(=O)O)C(=O)N[C@@H](CC(=O)O)C(=O)N[C@@H](C)C(=O)N[C@@H](CCC(=O)O)C(=O)N1CCC[C@H]1C(=O)N[C@@H](C)C(=O)N[C@@H](CCC(=O)O)C(=O)N[C@@H](CC(C)C)C(=O)N[C@@H](CCC(N)=O)C(=O)N[C@@H](CCCNC(=N)N)C(=O)N[C@@H](Cc1ccc(O)cc1)C(=O)N[C@@H](Cc1ccc(O)cc1)C(=O)N[C@H](C(=O)N[C@@H](CO)C(=O)N[C@@H](CC(C)C)C(=O)N[C@@H](CCCNC(=N)N)C(=O)N[C@@H](Cc1c[nH]cn1)C(=O)N[C@@H](Cc1ccc(O)cc1)C(=O)N[C@@H](Cc1ccc(O)cc1)C(=O)N[C@@H](CC(N)=O)C(=O)N[C@@H](Cc1c[nH]c2ccccc12)C(=O)N[C@@H](CC(C)C)C(=O)N[C@H](C(=O)N[C@@H](CCCNC(=N)N)C(=O)N[C@@H](CCC(N)=O)C(=O)N[C@@H](CCCNC(=N)N)C(=O)N[C@@H](Cc1ccc(O)cc1)C(N)=O)[C@@H](C)O)C(C)C
B5: Compound 241 (peptide)
peptide: Isovaleryl-APEK([AEEA-AEEA-γGlu-C18 diacid])PEEEASPEEIQRYYVSLRHYYNWLTRQRY-NH2
SMILES: CC[C@H](C)[C@H](NC(=O)[C@H](CCC(=O)O)NC(=O)[C@H](CCC(=O)O)NC(=O)[C@@H]1CCCN1C(=O)[C@H](CO)NC(=O)[C@H](C)NC(=O)[C@H](CCC(=O)O)NC(=O)[C@H](CCC(=O)O)NC(=O)[C@H](CCC(=O)O)NC(=O)[C@@H]1CCCN1C(=O)[C@H](CCCCNC(=O)COCCOCCNC(=O)COCCOCCNC(=O)CC[C@H](NC(=O)CCCCCCCCCCCCCCCCC(=O)O)C(=O)O)NC(=O)[C@H](CCC(=O)O)NC(=O)[C@@H]1CCCN1C(=O)[C@H](C)NC(=O)CC(C)C)C(=O)N[C@@H](CCC(N)=O)C(=O)N[C@@H](CCCNC(=N)N)C(=O)N[C@@H](Cc1ccc(O)cc1)C(=O)N[C@@H](Cc1ccc(O)cc1)C(=O)N[C@H](C(=O)N[C@@H](CO)C(=O)N[C@@H](CC(C)C)C(=O)N[C@@H](CCCNC(=N)N)C(=O)N[C@@H](Cc1c[nH]cn1)C(=O)N[C@@H](Cc1ccc(O)cc1)C(=O)N[C@@H](Cc1ccc(O)cc1)C(=O)N[C@@H](CC(N)=O)C(=O)N[C@@H](Cc1c[nH]c2ccccc12)C(=O)N[C@@H](CC(C)C)C(=O)N[C@H](C(=O)N[C@@H](CCCNC(=N)N)C(=O)N[C@@H](CCC(N)=O)C(=O)N[C@@H](CCCNC(=N)N)C(=O)N[C@@H](Cc1ccc(O)cc1)C(N)=O)[C@@H](C)O)C(C)C
B6: Compound 242 (peptide)
peptide: Isovaleryl-APEK([AEEA-AEEA-γGlu-C18 diacid])PEADASAEELQRYYVSLRHYYNWLTRQRY-NH2
SMILES: CC(C)CC(=O)N[C@@H](C)C(=O)N1CCC[C@H]1C(=O)N[C@@H](CCC(=O)O)C(=O)N[C@@H](CCCCNC(=O)COCCOCCNC(=O)COCCOCCNC(=O)CC[C@H](NC(=O)CCCCCCCCCCCCCCCCC(=O)O)C(=O)O)C(=O)N1CCC[C@H]1C(=O)N[C@@H](CCC(=O)O)C(=O)N[C@@H](C)C(=O)N[C@@H](CC(=O)O)C(=O)N[C@@H](C)C(=O)N[C@@H](CO)C(=O)N[C@@H](C)C(=O)N[C@@H](CCC(=O)O)C(=O)N[C@@H](CCC(=O)O)C(=O)N[C@@H](CC(C)C)C(=O)N[C@@H](CCC(N)=O)C(=O)N[C@@H](CCCNC(=N)N)C(=O)N[C@@H](Cc1ccc(O)cc1)C(=O)N[C@@H](Cc1ccc(O)cc1)C(=O)N[C@H](C(=O)N[C@@H](CO)C(=O)N[C@@H](CC(C)C)C(=O)N[C@@H](CCCNC(=N)N)C(=O)N[C@@H](Cc1c[nH]cn1)C(=O)N[C@@H](Cc1ccc(O)cc1)C(=O)N[C@@H](Cc1ccc(O)cc1)C(=O)N[C@@H](CC(N)=O)C(=O)N[C@@H](Cc1c[nH]c2ccccc12)C(=O)N[C@@H](CC(C)C)C(=O)N[C@H](C(=O)N[C@@H](CCCNC(=N)N)C(=O)N[C@@H](CCC(N)=O)C(=O)N[C@@H](CCCNC(=N)N)C(=O)N[C@@H](Cc1ccc(O)cc1)C(N)=O)[C@@H](C)O)C(C)C

The experiment has as its target T1, human neuropeptide Y2 receptor. The experiment can be described thus: radioligand competition (125I-PYY(1-36)), hNPY2R membranes. Summed up: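 Commercial human Y2 receptor membranes (0.5 μg protein/well) were incubated with peptide for 2 h at room temperature in 50 mM HEPES, 5 mM MgCl₂, 1 mM CaCl₂, pH 7.4, with 0.2% ovalbumin. Bound radioligand was separated on PEI-soaked GF/C filters and counted by scintillation, and IC₅₀ came from nonlinear sigmoidal regression.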
By Ki is commonly meant the dissociation constant of the complex between target and ligand, obtained from inhibition or displacement. A lower Ki goes with tighter binding. In turn, B1 showed a Ki of 1.95 nM.

In the case of B2, the inhibitory constant (Ki) stood at 25.1 nM.

In the case of B3, the affinity corresponds to a Ki of 2.07 nM.

For the molecule B4, the inhibition constant Ki turned out to be 1.84 nM.

B5 registered a Ki of 2.95 nM.

Consider B6, for which the inhibitory constant (Ki) was 0.81 nM.
